From doi:10.1101/2022.04.20.488894 come the findings set out here.

For this test, the target named is α-Synuclein (UniProt P37840). The experiment in a line: cross-linking.

For “α-Synuclein (from UniProt P37840 1-140) (natural protein)”, the P intra (intra-protein character) of the DSBU cross-link Lys-21 to Lys-32 is 77%.
